Test results from patent US20210301012A1 (UCB, published 2021).

B1: gp80 (receptor, human, UniProt P08887 20-358, looked up)
chain: LAPRRCPAQEVARGVLTSLPGDSVTLTCPGVEPEDNATVHWVLRKPAAGSHPSRWAGMGRRLLLRSVQLHDSGNYSCYRAGRPAGTVHLLVDVPPEEPQLSCFRKSPLSNVVCEWGPRSTPSLTTKAVLLVRKFQNSPAEDFQEPCQYSQESQKFSCQLAVPEGDSSFYIVSMCVASSVGSKFSKTQTFQGCGILQPDPPANITVTAVARNPRWLSVTWQDPHSWNSSFYRLRFELRYRAERSKTFTTWMVKDLQHHCVIHDAWSGLRHVVQLRAQEEFGQGEWSEWSPEAMGTPWTESRSPPAENEVSTPMQALTTNKDDDNILFRDSANATSLPVQD
notes: Soluble gp80 as used in ELISA, MST, Octet, SEC and SPR; In part of the ELISA work the methods name gp80-hscFc (gp80 M1-P322, C211A, C277A, fused to single chain human IgG Fc); also called IL-6 receptor; CD126

Experiments:
IL-6 [1] = molecular target: T1, IL-6 (human, UniProt P05231 28-212); experiment: ELISA, plate coated with IL-6, absorbance 630 nm
T1 construct: IL-6 as used in ELISA, MST, Octet, SEC and SPR; also called interleukin-6; hIL-6
Experimental: ELISA—IL-6, gp80 and FusionIL-6 used in ELISA to coat plates were diluted to a final concentration of […] in carbonate buffer (0.16% Na₂CO₃ and 0.3% NaHCO₃ in H₂O). Coated plates were incubated at 4° C. overnight. The following day, the plates were washed twice in PBST, blocked in PBS/5% BSA for 2 h at RT, and again washed twice in PBST. For preliminary screening, either supernatant from HEK cells or purified VHHs was added. Anti-llama-HRP or anti-His-HRP antibody was added for 1 h at RT. Afterwards the plates were washed twice with PBST and developed with TMB substrate. The reaction was stopped by adding NaF. […]

gp80 = molecular target: B1; experiment: ELISA, plate coated with gp80, absorbance 630 nm
IL-6-gp80 complex [2] = molecular target: T2, IL-6-gp80 complex (human, UniProt P05231 28-212; P08887 20-358); experiment: SPR (BIAcore T200, 25 C), VHH6 immobilised, IL-6 titrated (0-250 nM) with gp80 constant at 2 uM
T2 construct: Non-covalent transient heterodimer formed by mixing IL-6 and gp80
Experimental: (§1) Quantitative SPR analysis was carried out using a BIAcore T200 (GE Healthcare). The binding measurements were performed at a flow rate of 100 μl/min. The protein of interest was injected for 180 s and the dissociation was monitored for 360 s. […] The sensor surface was regenerated with […] MgCl₂. Background subtraction binding curves were analyzed using the T200 evaluation software (version 1.0) following standard procedures. Due to the complexity of the interactions studied, the data analysis was limited to the most informative, in this case kd parameter, which was determined by fitting a single exponential decay model to dissociation data within 360 s range.

IL-6-gp80 complex [3] = molecular target: T2, IL-6-gp80 complex; experiment: SPR (BIAcore T200, 25 C), VHH6 immobilised, gp80 titrated (0-250 nM) with IL-6 constant at 2 uM
Experimental: as §1

IL-6-gp80 complex [4] = molecular target: T2, IL-6-gp80 complex; experiment: MicroScale Thermophoresis, VHH6 titrated into IL-6-NT647 + gp80 (panel IL-6-NT647+gp80+VHH6)
Text: (§2) (a) ELISA: FusionIL-6, IL-6 or gp80 were immobilized overnight on plates. […] (b) MicroScale Thermophoresis (MST): IL-6 and gp80 were labelled with NT647.

IL-6-gp80 complex [5] = molecular target: T2, IL-6-gp80 complex; experiment: MicroScale Thermophoresis, VHH6 titrated into gp80-NT647 + IL-6 (panel gp80-NT647+IL-6+VHH6)
Text: as §2

IL-6-gp80 complex [6] = molecular target: T2, IL-6-gp80 complex; experiment: SPR (BIAcore 3000), His-tagged VHH captured from supernatant on Ni-NTA chip, equimolar IL-6 + gp80 (50 nM each) injected
Experimental: (§3) SPR analysis was performed using a BIAcore 3000 (GE Healthcare). […] An equimolar mixture of IL-6 and gp80 (50 nM each) was injected for 300 s at a flow rate of 10 μl/min followed by a dissociation phase of 300 s. At the end of each cycle the chip surface was regenerated by injection of 350 mM EDTA (2×10 μl).
(§4) To assess the contributions of the side chains to binding, single alanine substitutions at positions 27, 32, 74, 101 and 113, and double alanine substitutions at positions 27/32, 74/101 and 113/101 were generated. […] In a three-component system, it is not possible to calculate meaningful association rate constants. However, the dissociation rate constants, being concentration independent, were determined.

IL-6-gp80 complex [7] = molecular target: T2, IL-6-gp80 complex; experiment: as above; remark: listed apart in the source
Experimental: as §3, §4

IL-6-gp80 complex [8] = molecular target: T2, IL-6-gp80 complex; experiment: SPR, VHH captured on Ni-NTA chip, IL-6 + gp80 injected; reference VHH6
Experimental: as §3, §4

IL-6 [9] = molecular target: T1, IL-6; experiment: SPR, IL-6 immobilised, gp80 injected, with VHH6 against without VHH6
Text: For brevity, FIGS. 10a and b only report the SPR sensorgrams for IL-6 immobilization.

koff (IL-6-gp80 complex [6]) [s⁻¹]	koff (IL-6-gp80 complex [7]) [s⁻¹]	Binder	also measured
0.00036	0.00036	VHH6 (VHH, Camel single domain antibody expressed in Expi-HEK cells; The His tag was used for capture in Octet and in the NTA-chip SPR; also called wtVHH6; VHH6-6His; not shown: C-terminal TEV site and 6His tag (VHH6-6His)) VHH: DVQFVESGGGSVHAGGSLRLNCATSGYIYSTYCMGWFRQAPGKEREGVAHIYTNSGRTYYADSVKGRFTISQDNAKNTVYLQMNSLKPEDTAIYYCAARPSIRCASFSATEYKDWGQGTQVTVSS	binding result (IL-6 [1]): no binding; binding result (gp80): no binding; koff (IL-6-gp80 complex [2]): 0.000309 s⁻¹; koff (IL-6-gp80 complex [3]): 0.000375 s⁻¹; EC50 (read off the curve) (IL-6-gp80 complex [4]): ~30 nM; EC50 (read off the curve) (IL-6-gp80 complex [5]): ~60 nM
	0.00143	VHH6 K113A S101A (VHH, Tested as ExpiHEK supernatant; also called Ser101Ala/Lys113Ala; 113/101 double mutant; not shown: C-terminal His tag (captured on NTA chip)) VHH: DVQFVESGGGSVHAGGSLRLNCATSGYIYSTYCMGWFRQAPGKEREGVAHIYTNSGRTYYADSVKGRFTISQDNAKNTVYLQMNSLKPEDTAIYYCAARPAIRCASFSATEYADWGQGTQVTVSS	fold increase of dissociation rate against VHH6 (IL-6-gp80 complex [8]): 4.3 fold
0.00015		VHH6 N74A (VHH, Tested as ExpiHEK supernatant; not shown: C-terminal His tag (captured on NTA chip)) VHH: DVQFVESGGGSVHAGGSLRLNCATSGYIYSTYCMGWFRQAPGKEREGVAHIYTNSGRTYYADSVKGRFTISQDAAKNTVYLQMNSLKPEDTAIYYCAARPSIRCASFSATEYKDWGQGTQVTVSS	
	0.00135	VHH6 N74A S101A (VHH, Tested as ExpiHEK supernatant; also called Asn74Ala/Ser101Ala; 74/101 double mutant; not shown: C-terminal His tag (captured on NTA chip)) VHH: DVQFVESGGGSVHAGGSLRLNCATSGYIYSTYCMGWFRQAPGKEREGVAHIYTNSGRTYYADSVKGRFTISQDAAKNTVYLQMNSLKPEDTAIYYCAARPAIRCASFSATEYKDWGQGTQVTVSS	fold increase of dissociation rate against VHH6 (IL-6-gp80 complex [8]): 3.8 fold
	0.00043	VHH6 Y27A Y32A (VHH, Tested as ExpiHEK supernatant; also called 27/32 double mutant; not shown: C-terminal His tag (captured on NTA chip)) VHH: DVQFVESGGGSVHAGGSLRLNCATSGAIYSTACMGWFRQAPGKEREGVAHIYTNSGRTYYADSVKGRFTISQDNAKNTVYLQMNSLKPEDTAIYYCAARPSIRCASFSATEYKDWGQGTQVTVSS	
0.00039		VHH6 S101A (VHH, Tested as ExpiHEK supernatant; not shown: C-terminal His tag (captured on NTA chip)) VHH: DVQFVESGGGSVHAGGSLRLNCATSGYIYSTYCMGWFRQAPGKEREGVAHIYTNSGRTYYADSVKGRFTISQDNAKNTVYLQMNSLKPEDTAIYYCAARPAIRCASFSATEYKDWGQGTQVTVSS	
0.00026		VHH6 K113A (VHH, Tested as ExpiHEK supernatant; not shown: C-terminal His tag (captured on NTA chip)) VHH: DVQFVESGGGSVHAGGSLRLNCATSGYIYSTYCMGWFRQAPGKEREGVAHIYTNSGRTYYADSVKGRFTISQDNAKNTVYLQMNSLKPEDTAIYYCAARPSIRCASFSATEYADWGQGTQVTVSS	
0.0007		VHH6 Y27A (VHH, Tested as ExpiHEK supernatant; not shown: C-terminal His tag (captured on NTA chip)) VHH: DVQFVESGGGSVHAGGSLRLNCATSGAIYSTYCMGWFRQAPGKEREGVAHIYTNSGRTYYADSVKGRFTISQDNAKNTVYLQMNSLKPEDTAIYYCAARPSIRCASFSATEYKDWGQGTQVTVSS	fold increase of dissociation rate against VHH6 (IL-6-gp80 complex [8]): 1.9 fold
0.0003		VHH6 Y32A (VHH, Tested as ExpiHEK supernatant; not shown: C-terminal His tag (captured on NTA chip)) VHH: DVQFVESGGGSVHAGGSLRLNCATSGYIYSTACMGWFRQAPGKEREGVAHIYTNSGRTYYADSVKGRFTISQDNAKNTVYLQMNSLKPEDTAIYYCAARPSIRCASFSATEYKDWGQGTQVTVSS	
	0.00164	VHH6 K113S S101A (VHH, The text describes only alanine substitutions; not shown: C-terminal His tag (captured on NTA chip)) VHH: DVQFVESGGGSVHAGGSLRLNCATSGYIYSTYCMGWFRQAPGKEREGVAHIYTNSGRTYYADSVKGRFTISQDNAKNTVYLQMNSLKPEDTAIYYCAARPAIRCASFSATEYSDWGQGTQVTVSS	
		B1	fold reduction of koff by VHH6 (IL-6 [9]): 225 fold
